B1: HA-tagged ASK1-WT (protein)
chain: MSTEADEGITFSVPPFAPSGFCTIPEGGICRRGGAAAVGEGEEHQLPPPPPGSFWNVESAAAPGIGCPAATSSSSATRGRGSSVGGGSRRTTVAYVINEASQGQLVVAESEALQSLREACETVGATLETLHFGKLDFGETTVLDRFYNADIAVVEMSDAFRQPSLFYHLGVRESFSMANNIILYCDTNSDSLQSLKEIICQKNTMCTGNYTFVPYMITPHNKVYCCDSSFMKGLTELMQPNFELLLGPICLPLVDRFIQLLKVAQASSSQYFRESILNDIRKARNLYTGKELAAELARIRQRVDNIEVLTADIVINLLLSYRDIQDYDSIVKLVETLEKLPTFDLASHHHVKFHYAFALNRRNLPGDRAKALDIMIPMVQSEGQVASDMYCLVGRIYKDMFLDSNFTDTESRDHGASWFKKAFESEPTLQSGINYAVLLLAAGHQFESSFELRKVGVKLSSLLGKKGNLEKLQSYWEVGFFLGASVLANDHMRVIQASEKLFKLKTPAWYLKSIVETILIYKHFVKLTTEQPVAKQELVDFWMDFLVEATKTDVTVVRFPVLILEPTKIYQPSYLSINNEVEEKTISIWHVLPDDKKGIHEWNFSASSVRGVSISKFEERCCFLYVLHNSDDFQIYFCTELHCKKFFEMVNTITEEKGRSTEEGDCESDLLEYDYEYDENGDRVVLGKGTYGIVYAGRDLSNQVRIAIKEIPERDSRYSQPLHEEIALHKHLKHKNIVQYLGSFSENGFIKIFMEQVPGGSLSALLRSKWGPLKDNEQTIGFYTKQILEGLKYLHDNQIVHRDIKGDNVLINTYSGVLKISDFGTSKRLAGINPCTETFTGTLQYMAPEIIDKGPRGYGKAADIWSLGCTIIEMATGKPPFYELGEPQAAMFKVGMFKVHPEIPESMSAEAKAFILKCFEPDPDKRACANDLLVDEFLKVSSKKKKTQPKLSALSAGSNEYLRSISLPVPVLVEDTSSSSEYGSVSPDTELKVDPFSFKTRAKSCGERDVKGIRTLFLGIPDENFEDHSAPPSPEEKDSGFFMLRKDSERRATLHRILTEDQDKIVRNLMESLAQGAEEPKLKWEHITTLIASLREFVRSTDRKIIATTLSKLKLELDFDSHGISQVQVVLFGFQDAVNKVLRNHNIKPHWMFALDSIIRKAVQTAITILVPELRPHFSLASESDTADQEDLDVEDDHEEQPSNQTVRRPQAVIEDAVATSGVSTLSSTVSHDSQSAHRSLNVQLGRMKIETNRLLEELVRKEKELQALLHRAIEEKDQEIKHLKLKSQPIEIPELPVFHLNSSGTNTEDSELTDWLRVNGADEDTISRFLAEDYTLLDVLYYVTRDDLKCLRLRGGMLCTLWKAIIDFRNKQT
B2: Flag-tagged Trx-WT (protein)
chain: MVKQIESKTAFQEALDAAGDKLVVVDFSATWCGPCKMIKPFFHSLSEKYSNVIFLEVDVDDCQDVASECEVKCMPTFQFFKKGQKVGEFSGANKEKLEATINELV

Columns and labels:
[1] = target: GST-SOCS3-DC (1-138aa, deletion of the C-terminal SOCS box) [GST: P08515]
[2] = target: GST-SOCS3 (full-length) [GST: P08515]
[3] = target: GST-SOCS3-N (1-45aa) [GST: P08515]
[4] = target: endogenous ASK1 of bovine aorta endothelial cells (BAEC), A0AAA9

Protein | phosphorylation in an in vitro kinase assay [1] | phosphorylation in an in vitro kinase assay [2] | phosphorylation in an in vitro kinase assay [3] | ASK1 ubiquitination and degradation (Western blot with anti-Flag) (Flag-ASK1-ΔN, Q99683) | ASK1 ubiquitination and degradation (Western blot; IP anti-ASK1, blot anti-Ub) [4]
B1 | only the full-length GST-SOCS3 was phosphorylated by ASK1 | only the full-length GST-SOCS3 was phosphorylated by ASK1 | only the full-length GST-SOCS3 was phosphorylated by ASK1 | – | –
B2 | – | – | – | expression of Trx did not induce ubiquitination and degradation of ASK1 -ΔN, a mutant ASK1 lacking the N-terminal Trx-binding domain | Trx expression significantly increased ASK1 ubiquitination

Source: patent US20060148057
